Results taken from the supplement of paper PMC9170038.

System: MS2 coat protein
Experiment: apparent KD of MS2 coat protein; designed switch direction (-1 OFF switch, 1 ON switch): -1; higher = weaker reporter binding
Summary of the method: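 Designed RNA switches were transcribed on Illumina chips by stalled E. coli RNA polymerase and titrated with SNAP-549-labelled MS2 coat protein from 0.7 or 1.5 nM, doubling to 3 µM. Step length ran from 0.8–1.5 h at the lowest concentration to 10–20 min at the highest. The apparent KD is the median over clusters for each design, from curve-fitted normalised cluster fluorescence.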

[1] = Eterna round: R95, input ligand: microRNA oligo, concentration not stated
[2] = input ligand: microRNA oligo, concentration not stated
[3] = Eterna round: R95, input ligand: FMN 200 uM
[4] = Eterna round: R95, input ligand: none

Sequence | apparent KD of MS2 coat protein (input ligand: FMN 200 uM) [nM] | apparent KD of MS2 coat protein (input ligand: none) [nM] | apparent KD of MS2 coat protein [1] [nM] | apparent KD of MS2 coat protein [2] [nM] | apparent KD of MS2 coat protein [3] [nM] | apparent KD of MS2 coat protein [4] [nM]
AGACUUAUAGGAUAUACAUGAGGAUCACCCAUGUCGCCAGGCGGUAGCAGAGUCUUUUGUAGAAGGAUGACAAC [Eternabot (Original) Solution 35] (Eterna round: R97, puzzle: Exclusion 3) | 20.6 | 21.2 | – | – | – | –
UUUUAACAUGAGGAUCACCCAUGUGAGGAUAUCGAAAUUUAUAUUAAUAUUAUUUUAACGAGAAGGCACAUUUU [JMF 47] (puzzle: Exclusion 1) | – | – | 67.2 | – | – | –
UUUUAACAUGAGGAUCACCCAUGUGAGGAUAUCGAAAUUUAUAUUAAUAUUUAUUAUACGAGAAGGCACAUUUU [JMF 62] (puzzle: Exclusion 1) | – | – | 77.5 | – | – | –
AAUGAGCGAGGAUAUGCAACUGUAUGACCUACGUGUGCCAGACAUGAGGAUCACCCAUGUAGAAGGUGCUUUCC [Israte] (Eterna round: R96, puzzle: Exclusion 2) | 59.9 | 57 | – | 45.3 | – | –
UUAUUGUGAGGAUAUCCAAUAUAUGACAUGAGGAUCACCCAUGUUUCCACUCGUACCUCCGGAGAAGGCACUUAUA [Ex5 #47] (Eterna round: R97, puzzle: Exclusion 5) | 28.6 | 32.3 | – | – | – | –
UGUCCACAUUCCGAUACGGGACAUGAGGAUCACCCAUGUCCACAGGAUAUCGUCUUACGAGAGAUCGAGAAGGGUGGCGUGCGC [Eternabot solution 22] (Eterna round: R96, puzzle: Exclusion NG 3) | 13.1 | 14.1 | – | 9.72 | – | –
ACUCUUCUUGUUAGGAUAUGCAUCGGGCUUCCGCAGCAGAAGGAACAUGAGGAUCACCCAUGUCAAAUAAAAUC (Eterna round: R97, puzzle: Brourd's mod of Exclusion 4) | 141 | 20.8 | – | – | – | –
CUAGUAUAUCAGGAUAUGAUUUUAUAUAGUGGAUCAGAAGGGAUAACAUGAGGAUCACCCAUGUUAAGGAGUGA [JR_Ex6_Sub041] (Eterna round: R97, puzzle: Exclusion 6) | 129 | 49.9 | – | – | – | –
CAUACAGUAGUCAGGAUAUUGCAACACACACGGAACGAGAAGGGACAUGAGGAUCACCCAUGUAUACUGUAAAG [EX-4 Malc #5] (puzzle: Brourd's mod of Exclusion 4) | – | – | 21 | – | 16 | 24.7
UUUAAUUUUUUUUUUUUACAAGCUUUUUGCUCGUCUUAUACAUGAGGAUCACCCAUGUAAAUGAGGGAUAAAUUAUC [JMF 38] (puzzle: Sensor v3, turn-off variant 2) | – | – | 21.3 | – | 15.4 | 15.7
UUUAAUUUUUUUUUUUUACAAGCUUUUUGCUCGUCUUAUACAUGAGGAUCACCCAUGUGGGUGGGAGGUAAAUUAUC [JMF 78] (puzzle: Sensor v3, turn-off variant 2) | – | – | 26.1 | – | 63.7 | 82.6
AGAGAGUCAGGAUAUCGAAGGGAGAGAAAAGGAGAGAGGUACGAGAAGGGACAUGAGGAUCACCCAUGUAGGUG [JR_Exclusion4)Sub015] (puzzle: Exclusion 4) | – | – | 413 | – | 279 | 622
AGGAUGUUAGGAUAUCGGAUAUGCUGGAGGAGGUGGAUUUACGAGAAGGAACAUGAGGAUCACCCAUGUUGGAG [JR_Exclu4_Sub047] (puzzle: Exclusion 4) | – | – | 20.9 | – | – | –
